T1: CD3 (human)
T1 chain: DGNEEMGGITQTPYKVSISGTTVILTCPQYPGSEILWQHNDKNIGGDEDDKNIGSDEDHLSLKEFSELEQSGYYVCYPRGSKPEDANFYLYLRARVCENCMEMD


Target: T1, CD3
Experiment: CD3 binding as in Example 2 (ELISA or FCM)

| Binder | EC50 |
| --- | --- |
| Anti-CD3 Ly305 (antibody, V domains shown, Parent mAb; also called CD3 mAb Ly305) VH: EVQLVESGGGLVQPGGSLRLSCAASGFTFSTYAMNWVRQAPGKGLEWVGRIRSKYNNYATYYADSVKGRFTISRDDSKNSLYLQMNSLKTEDTAVYYCVRHGNFGNSYVSWFAYWGQGTLVTVSS VL: QAVVTQEPSLTVSPGGTVTLTCRSSTGAVTTSNYANWVQQKPGQAPRGLIGGTNKRAPWTPARFSGSLLGGKAALTITGAQAEDEADYYCALWYSNLWVFGGGTKLTVL | 0.03 µg/mL |
| Ly2278 (bispecific antibody, CD19/CD3) chain 1: QVQLQQSGAELVRPGSSVKISCKASGYAFSSYWMNWVKQRPGQGLEWIGQIWPGDGDTNYNGKFKGKATLTADESSSTAYMQLSSLASEDSAVYFCARRETTTVGRYYYAMDYWGQGTTVTVSSASTKGPSVFPLAPSSKSTSGGTAALGCLVKDYFPEPVTVSWNSGALTSGVHTFPAVLQSSGLYSLSSVVTVPSSSLGTQTYICNVNHKPSNTKVDKKVEPKSCGGGGSGGGGSGGGGSGGGGSEVQLVESGGGLVQPGGSLRLSCAASGFTFSTYAMNWVRQAPGKGLEWVGRIRSKYNNYATYYADSVKGRFTISRDDSKNSLYLQMNSLKTEDTAVYYCVRHGNFGNSYVSWFAYWGQGTLVTVSSGGGGSDKTHTCPPCPAPEAAGPSVFLFPPKPKDTLMISRTPEVTCVVVDVSHEDPEVKFNWYVDGVEVHNAKTKPREEQYNSTYRVVSVLTVLHQDWLNGKEYKCKVSNKALPAPIEKTISKAKGQPREPQVYTLPPSREEMTKNQVSLWCLVKGFYPSDIAVEWESNGQPENNYKTTPPVLDSDGSFFLYSKLTVDKSRWQQGNVFSCSVMHEALHNHYTQKSLSLSPG chain 2: QVQLQQSGAELVRPGSSVKISCKASGYAFSSYWMNWVKQRPGQGLEWIGQIWPGDGDTNYNGKFKGKATLTADESSSTAYMQLSSLASEDSAVYFCARRETTTVGRYYYAMDYWGQGTTVTVSSASTKGPSVFPLAPSSKSTSGGTAALGCLVKDYFPEPVTVSWNSGALTSGVHTFPAVLQSSGLYSLSSVVTVPSSSLGTQTYICNVNHKPSNTKVDKKVEPKSCGGGGSGGGGSGGGGSGGGGSQAVVTQEPSLTVSPGGTVTLTCRSSTGAVTTSNYANWVQQKPGQAPRGLIGGTNKRAPWTPARFSGSLLGGKAALTITGAQAEDEADYYCALWYSNLWVFGGGTKLTVLGGGGSDKTHTCPPCPAPEAAGPSVFLFPPKPKDTLMISRTPEVTCVVVDVSHEDPEVKFNWYVDGVEVHNAKTKPREEQYNSTYRVVSVLTVLHQDWLNGKEYKCKVSNKALPAPIEKTISKAKGQPREPQVYTLPPSREEMTKNQVSLSCAVKGFYPSDIAVEWESNGQPENNYKTTPPVLDSDGSFFLVSKLTVDKSRWQQGNVFSCSVMHEALHNRFTQKSLSLSPG chain 3: not shown | 1.46 µg/mL |
| Ly1963 (multi-specific antibody, Trispecific B7H3/CD3/CD137) chain 1: QVQLVQSGAEVKKPGASVKVSCKASGYTFTSYVMHWVRQKPGQGLEWIGYINPYNEGTESTDKFKGRATMTSDKSTSTVYMELSSLRSEDTAVYYCASIYYGYEGTYFGVWGQGTLVTVSSASTKGPSVFPLAPSSKSTSGGTAALGCLVKDYFPEPVTVSWNSGALTSGVHTFPAVLQSSGLYSLSSVVTVPSSSLGTQTYICNVNHKPSNTKVDKKVEPKSCGGGGSGGGGSGGGGSGGGGSEVQLVESGGGLVQPGGSLRLSCAASGFTFSTYAMNWVRQAPGKGLEWVGRIRSKYNNYATYYADSVKGRFTISRDDSKNSLYLQMNSLKTEDTAVYYCVRHGNFGNSYVSWFAYWGQGTLVTVSSGGGGSDKTHTCPPCPAPEAAGPSVFLFPPKPKDTLMISRTPEVTCVVVDVSHEDPEVKFNWYVDGVEVHNAKTKPREEQYNSTYRVVSVLTVLHQDWLNGKEYKCKVSNKALPAPIEKTISKAKGQPREPQVYTLPPSREEMTKNQVSLWCLVKGFYPSDIAVEWESNGQPENNYKTTPPVLDSDGSFFLYSKLTVDKSRWQQGNVFSCSVMHEALHNHYTQKSLSLSPGGGGGSGGGGSGGGGSGGGGSQVQLVQSGAEVKKPGASVKVSCKASGYTFAGFEMHWVRQAPGQGLEWMGAIDPKTGGTDYNQKFKDRVTMTRDTSISTAYMELSRLRSDDTAVYYCARDLGYFDVWGQGTLVTVSS chain 2: QVQLVQSGAEVKKPGASVKVSCKASGYTFTSYVMHWVRQKPGQGLEWIGYINPYNEGTESTDKFKGRATMTSDKSTSTVYMELSSLRSEDTAVYYCASIYYGYEGTYFGVWGQGTLVTVSSASTKGPSVFPLAPSSKSTSGGTAALGCLVKDYFPEPVTVSWNSGALTSGVHTFPAVLQSSGLYSLSSVVTVPSSSLGTQTYICNVNHKPSNTKVDKKVEPKSCGGGGSGGGGSGGGGSGGGGSQAVVTQEPSLTVSPGGTVTLTCRSSTGAVTTSNYANWVQQKPGQAPRGLIGGTNKRAPWTPARFSGSLLGGKAALTITGAQAEDEADYYCALWYSNLWVFGGGTKLTVLGGGGSDKTHTCPPCPAPEAAGPSVFLFPPKPKDTLMISRTPEVTCVVVDVSHEDPEVKFNWYVDGVEVHNAKTKPREEQYNSTYRVVSVLTVLHQDWLNGKEYKCKVSNKALPAPIEKTISKAKGQPREPQVYTLPPSREEMTKNQVSLSCAVKGFYPSDIAVEWESNGQPENNYKTTPPVLDSDGSFFLVSKLTVDKSRWQQGNVFSCSVMHEALHNHYTQKSLSLSPGGGGGSGGGGSGGGGSGGGGSDIQMTQSPSSLSASVGDRVTITCRASQDIRSNLNWYQQKPGGAVKLLIYYTSRLHSGVPSRFSGSGSGTDYTLTISSLQPEDFATYFCQQSEKLPRTFGGGTKVEIR chain 3: EIVLTQSPATLSLSPGERATLSCRASSSVSYMHWYQQKPGQAPRPWIYATSNLASGIPARFSGSRSGTDYTLTISSLEPEDFAVYYCQQWSSNTLTFGGGTKVEIKRTVAAPSVFIFPPSDEQLKSGTASVVCLLNNFYPREAKVQWKVDNALQSGNSQESVTEQDSKDSTYSLSSTLTLSKADYEKHKVYACEVTHQGLSSPVTKSFNRGEC | 0.74 µg/mL |
| Ly1965 (bispecific antibody, B7H3/CD3) chain 1: QVQLVQSGAEVKKPGASVKVSCKASGYTFTSYVMHWVRQKPGQGLEWIGYINPYNEGTESTDKFKGRATMTSDKSTSTVYMELSSLRSEDTAVYYCASIYYGYEGTYFGVWGQGTLVTVSSASTKGPSVFPLAPSSKSTSGGTAALGCLVKDYFPEPVTVSWNSGALTSGVHTFPAVLQSSGLYSLSSVVTVPSSSLGTQTYICNVNHKPSNTKVDKKVEPKSCGGGGSGGGGSGGGGSGGGGSEVQLVESGGGLVQPGGSLRLSCAASGFTFSTYAMNWVRQAPGKGLEWVGRIRSKYNNYATYYADSVKGRFTISRDDSKNSLYLQMNSLKTEDTAVYYCVRHGNFGNSYVSWFAYWGQGTLVTVSSGGGGSDKTHTCPPCPAPEAAGPSVFLFPPKPKDTLMISRTPEVTCVVVDVSHEDPEVKFNWYVDGVEVHNAKTKPREEQYNSTYRVVSVLTVLHQDWLNGKEYKCKVSNKALPAPIEKTISKAKGQPREPQVYTLPPSREEMTKNQVSLWCLVKGFYPSDIAVEWESNGQPENNYKTTPPVLDSDGSFFLYSKLTVDKSRWQQGNVFSCSVMHEALHNHYTQKSLSLSPG chain 2: QVQLVQSGAEVKKPGASVKVSCKASGYTFTSYVMHWVRQKPGQGLEWIGYINPYNEGTESTDKFKGRATMTSDKSTSTVYMELSSLRSEDTAVYYCASIYYGYEGTYFGVWGQGTLVTVSSASTKGPSVFPLAPSSKSTSGGTAALGCLVKDYFPEPVTVSWNSGALTSGVHTFPAVLQSSGLYSLSSVVTVPSSSLGTQTYICNVNHKPSNTKVDKKVEPKSCGGGGSGGGGSGGGGSGGGGSQAVVTQEPSLTVSPGGTVTLTCRSSTGAVTTSNYANWVQQKPGQAPRGLIGGTNKRAPWTPARFSGSLLGGKAALTITGAQAEDEADYYCALWYSNLWVFGGGTKLTVLGGGGSDKTHTCPPCPAPEAAGPSVFLFPPKPKDTLMISRTPEVTCVVVDVSHEDPEVKFNWYVDGVEVHNAKTKPREEQYNSTYRVVSVLTVLHQDWLNGKEYKCKVSNKALPAPIEKTISKAKGQPREPQVYTLPPSREEMTKNQVSLSCAVKGFYPSDIAVEWESNGQPENNYKTTPPVLDSDGSFFLVSKLTVDKSRWQQGNVFSCSVMHEALHNRFTQKSLSLSPG chain 3: EIVLTQSPATLSLSPGERATLSCRASSSVSYMHWYQQKPGQAPRPWIYATSNLASGIPARFSGSRSGTDYTLTISSLEPEDFAVYYCQQWSSNTLTFGGGTKVEIKRTVAAPSVFIFPPSDEQLKSGTASVVCLLNNFYPREAKVQWKVDNALQSGNSQESVTEQDSKDSTYSLSSTLTLSKADYEKHKVYACEVTHQGLSSPVTKSFNRGEC | 0.419 µg/mL |
| Ly2128 (multi-specific antibody, Tri-specific B7H3/CD3/CD28) chain 1: QVQLVQSGAEVKKPGASVKVSCKASGYTFTSYVMHWVRQKPGQGLEWIGYINPYNEGTESTDKFKGRATMTSDKSTSTVYMELSSLRSEDTAVYYCASIYYGYEGTYFGVWGQGTLVTVSSASTKGPSVFPLAPSSKSTSGGTAALGCLVKDYFPEPVTVSWNSGALTSGVHTFPAVLQSSGLYSLSSVVTVPSSSLGTQTYICNVNHKPSNTKVDKKVEPKSCGGGGSGGGGSGGGGSGGGGSEVQLVESGGGLVQPGGSLRLSCAASGFTFSTYAMNWVRQAPGKGLEWVGRIRSKYNNYATYYADSVKGRFTISRDDSKNSLYLQMNSLKTEDTAVYYCVRHGNFGNSYVSWFAYWGQGTLVTVSSGGGGSDKTHTCPPCPAPEAAGPSVFLFPPKPKDTLMISRTPEVTCVVVDVSHEDPEVKFNWYVDGVEVHNAKTKPREEQYNSTYRVVSVLTVLHQDWLNGKEYKCKVSNKALPAPIEKTISKAKGQPREPQVYTLPPSREEMTKNQVSLWCLVKGFYPSDIAVEWESNGQPENNYKTTPPVLDSDGSFFLYSKLTVDKSRWQQGNVFSCSVMHEALHNHYTQKSLSLSPGGGGGSGGGGSGGGGSGGGGSQVQLVQSGAEVKKPGASVKVSCKASGYTFTSYYIHWVRQAPGQGLEWIGCIYPGNVNTNYNEKFKDRATLTVDTSISTAYMELSRLRSDDTAVYFCTRSHYGLDWNFDVWGQGTTVTVSS chain 2: not shown chain 3: EIVLTQSPATLSLSPGERATLSCRASSSVSYMHWYQQKPGQAPRPWIYATSNLASGIPARFSGSRSGTDYTLTISSLEPEDFAVYYCQQWSSNTLTFGGGTKVEIKRTVAAPSVFIFPPSDEQLKSGTASVVCLLNNFYPREAKVQWKVDNALQSGNSQESVTEQDSKDSTYSLSSTLTLSKADYEKHKVYACEVTHQGLSSPVTKSFNRGEC | 1.08 µg/mL |

— patent EP4803150A2 (Lyvgen Biopharma Holdings Limited, dated 2026)
